Target: p65 (UniProt Q04206)
Assay: anti-FLAG co-IP, anti-p65 blot
Conditions: reference: Flag-WT, IL-1β treated; sites S15

- binding against the reference: weaker
Substance: PRMT5 (from UniProt O14744) Flag-S15A, IL-1β treated
